Earlier results on one substance are cited in patent publication US9241970B2, “Therapy for subarachnoid hemorrhage and ischemia” (NoNO Inc., priority 2011, dated 2016).

This series has as its target binding of NMDAR2B to PSD-95 (Homo sapiens, UniProt P78352). To be noted: reported by Bach.

Sequence of binding of NMDAR2B to PSD-95 (P78352 whole entry): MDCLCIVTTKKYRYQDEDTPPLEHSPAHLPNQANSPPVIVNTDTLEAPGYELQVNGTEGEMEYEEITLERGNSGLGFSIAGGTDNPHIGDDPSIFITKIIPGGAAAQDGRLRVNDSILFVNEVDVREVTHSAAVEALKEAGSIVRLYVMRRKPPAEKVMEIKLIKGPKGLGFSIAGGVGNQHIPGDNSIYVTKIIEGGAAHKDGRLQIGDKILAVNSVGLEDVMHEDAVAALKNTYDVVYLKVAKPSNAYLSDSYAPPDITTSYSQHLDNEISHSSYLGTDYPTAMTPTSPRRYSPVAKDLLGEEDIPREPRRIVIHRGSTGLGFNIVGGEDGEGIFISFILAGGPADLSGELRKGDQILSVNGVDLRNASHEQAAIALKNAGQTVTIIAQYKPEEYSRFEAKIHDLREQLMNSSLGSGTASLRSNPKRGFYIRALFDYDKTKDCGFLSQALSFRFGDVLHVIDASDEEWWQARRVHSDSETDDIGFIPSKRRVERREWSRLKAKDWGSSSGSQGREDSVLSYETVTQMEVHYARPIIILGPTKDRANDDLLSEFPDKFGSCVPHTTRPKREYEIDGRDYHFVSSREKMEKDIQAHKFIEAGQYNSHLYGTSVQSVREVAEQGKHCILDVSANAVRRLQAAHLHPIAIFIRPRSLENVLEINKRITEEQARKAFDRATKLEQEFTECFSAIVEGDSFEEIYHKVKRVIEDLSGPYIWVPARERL

In the case of IESDV (listed as Homo sapiens), the “inhibition of binding of NMDAR2B to PSD-95” value was “effective in inhibiting binding of NMDAR2B to PSD-95”.
